Results: publication doi:10.1101/406538 (bioRxiv, 2018)

Target: T1, ATI2-N, N-terminal region of ATG8 Interacting Protein 2 (M1-T193) (Arabidopsis thaliana, UniProt Q8VY98 1-193)
T1 sequence (looked up): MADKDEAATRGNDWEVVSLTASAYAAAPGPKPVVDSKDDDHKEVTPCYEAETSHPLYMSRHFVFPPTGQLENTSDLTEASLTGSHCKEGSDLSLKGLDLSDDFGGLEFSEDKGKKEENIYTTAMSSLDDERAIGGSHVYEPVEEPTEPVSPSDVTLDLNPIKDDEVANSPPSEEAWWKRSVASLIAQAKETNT
Assay: NMR titration

- binding result: binds
B1: ATG8f, processed form (1-117), recombinant (natural protein, Arabidopsis thaliana, UniProt Q8VYK7 1-117, looked up)
chain: MAKSSFKQEHDLEKRRAEAARIREKYPDRIPVIVEKAEKSDIPTIDKKKYLVPADLTVGQFVYVIRKRIKLSAEKAIFIFVDNVLPPAGALMSSVYEEKKDDDGFLYVTYSGENTFG
